Measurements as given in the DeepSol protein solubility set.

Assay: soluble on expression in E. coli; label from the status in PepcDB or PDB records
For “MSLIAKVVVDVAAKQTDRIFEYHIPVELEKDIKVGSRVVVPFGPRKIQGFVVGLSEDSEFKGQLKDLLVVVDEMPPLTPELVTLSADLAENIYSYRIKILQAMLPWVMRANYRKLLVPANAQAEKMQFFQGDPIDLNKITDLKDIKKIRKLLRDGDAKIEYVVENKAKKKKENQYELVLESEEYTKIYNTLRQNAVKQKQLLMDIIENEASYPKNQKDFEKKLGLTASVLNTAVKRGWLKRKEVEVYRDPLSGFKDNKKSAPVKLNDEQQFALNQITAAIDKRKAETFLLEGITGSGKTEVYLHAISKALEQGRNALMLVPEISLTPQMVRQVKSRFGQAVAVLHSALSEGEKYDEWRRIRRGETRVVVGARSAVFAPLDNIGLIVIDEEHESSYKQETDPRYNARDVAIWRSKYHHCPLVLGSATPSLGSRARAQKNVYKLLRLTKRANNKKLPKVNLIDLKHVQFAGGQFDLSVNLVDAIKKRLDNKEQVILMLNRRGFANFMLCRECGFVLKCPNCDVSLNLHKDTNSMQCHYCGHTERVPSRCPNCQSSKIRFLGTGTQKVQEELEELLPGARILRMDVDTTRKKGSYKRILDSFGNHEADILLGTQMIAKGLDFPNVTLVGVINADTGLWLSDYNASEKTFELLTQVAGRAGRANKEGEVLIQTYNPEHYAIQLAQTQNYERFYGYEMNVRHAGNYPPYFFTVLISIAAKKEQNAAREAFRIKRYLSQHLHEEMIILGPTPSAISRVKNQYYYQILVKYKKEPNIKELLHHIQDSAQEAKKYGLNVFIDNEPEKIMEGHHHHHH”, the “soluble on expression in E. coli” value was “soluble”.
In the case of “MSLIAPLLVIEDEPAVMSFVRRALERGGYTVVGANSGMQALELLKGQQFQGIISDMRTPGNVDGGGVYHWIREHRPELANRIVFITGDIVNEETVAVLKETGAPCVEKPFRVQDLIATVENTIGKPQQETEGHHHHHH”, the “soluble on expression in E. coli” value is reported as “soluble”.
With “MSLIDPKRARLPIIRQCTLLRLNRSGVYYRSVPQSEANLELMRLIDAQFLETPYYGSRQMTWHLRRLGHEVGRKRVRRLMAIMGLRAIYQKPRTSVPHPEHRKYPYLLRDLVIDRPNQVWCSDITYIPMKRGFLYLVAIMDWFTRKVLSWRLSNTMDAEFCIEALRDALMRYGPPEIFNTDQGSQFTTPRFTGILEERQIRISMDGRGRWLDNVFIERLWRSLKYECVYLHAFETESELRVGLTKWITHYNGQRPHTALAGRTPDEAYHGVPTPSGPGLTPDQMANSNAVRMAAEGHHHHHH” the “soluble on expression in E. coli” value was “soluble”.
In the case of “MSLIHAGSMIDGVAKKIKTKQTIVIEDGVIIDVKSGYTKAKPNDIVIDLKNTTVTPGWMDLHVHLGSQSSPQSYSEDFYLNPEDFAYRSVPWIEKTLLAGFTTVRDVGGEVVLAARNAVNNGYINGPRIFSAGRSIGTTGGHADPSSGLNRKFRGDPGPHDAVVNGVDDAMKAVRQRYKDGSDLIKITATGGVLSVAKNGQNPQFTEEEIRAIVETAKDYEMHVAAHAHGVEGMQRAIRAGVRTIEHGTLMDRPTARLMKKYGTYYVPTVSAGEFVYEKAKEPGYFPEIVRPKALEIGPKIKKTLGMAYEEGVKIAFGTDMGVSPHGENADEFVYMVEAGMKPIDAIFAATSIAAEVLNQEDLGKIKKGMKADIVAVNGNPLKDIAVTKNVVFVMKDGVVYKQPINLKEGHHHHHH”, the “soluble on expression in E. coli” value is reported as “soluble”.
In the case of “MSLIHIAIAEDDFRVAQIHERLIKQLDGFKIIGKAANAKETLALLKEHKADLLLLDIYMPDELGTALIPDIRSRFPEVDIMIITAATETRHLQEALRAGIAHYLIKPVTADKFRQVLLQYKEKRKLLMSQPKGIITITTDPNSSSVDKLAAALEHHHHHH”, the “soluble on expression in E. coli” value is reported as “soluble”.
With “MSLIKQEHMHPPPRAITPLPPATHQITLEEYKEREKKDYYRDATKDASVKKVVLSLLKDHPGMWQNGNRFQPEKWRALGVDVYQRTGQIVRVNDMRKMLVMGKSVLKKKIAICIRDKKLDRAATEKDLWYWEYYRHFLYYRETLGQFEANLRGEEWTGEDQIQDEDDIIYDGMLDGDLSNSSHNFAGHGADDDYQVEEVQYSEAGFRRPESVRGGDSYFGHGPPPQMVMGSSASNFSSATQSHSRNRKSSSIDHTEVDRSAQHIAEQAKRLFLQYPEKSNLIRETMFKTILAFDDPSADYQNVGEIFDDLAAQEAAKKRKRAENRAQREQQ” the “soluble on expression in E. coli” value was “not soluble”.
For “MSLILLNTITDQVSVSETQTKSPRLWMPERVLFTPAALGEDWGQQILARVQSLNLPIEELSQNRLKGLRGESERDTYNIAKRTLAVVTAPPSSFKLSPIPPSADWQFHIAEGCPAHCQYCYLAGSLSGPPVIRVFANLPQILENLANYEQQGKTTTFEVSCYTDPLGIEHLTGSLAECIRYFGTRTNAHLRWVSKFDAVDGLLDLPHNGNTRCRMSVNAAPISGKFEGGTASVASRLNALRRLALPQERGGGGYPVGLVIAPIMPIDDWQMHYSRLFDQINEALDFDCNFTFELISHRFTPGSKEVLQAWYPQSKLEMDEAKRSVKRNKFGGTKYVYEKDTMKALRSFFESEISRRFPNAETLYWTEGHHHHHH”, the “soluble on expression in E. coli” value was “soluble”.
In the case of “MSLIRAMQKSDYEAVYKLWCEIKGFGIRSIDDSKENIENFLDRNPNLSVVAVIDEEIVGSILCGHDGRTGGFYHVCVHKDHRKKGIAHEMAKFCLEALKAQKINKIALIAFKNNDLGNEFWKHYGFTLREDANYYDLSLNEYNQTSFNAEGHHHHHH”, the “soluble on expression in E. coli” value is reported as “soluble”.
In the case of “MSLITDLFKRRIHQMEEKKKKNIGFNIIKSDPTDGHGGFGGGSLSLDNVSPVFVDVEAGDAHVDIGAMHARSTVEKGIKFLTNQEDVPNGKPYWLVWVTIDRKQEGPYYAGVTACFMTVDREIRRGYKLLPEHVNRLDKSIKRHIIVDHMDDKSKGILADFLKNHDMGMWERAEDQLKKDLASSEGHHHHHH”, the “soluble on expression in E. coli” value is reported as “soluble”.
For “MSLITQRSSMIGVVTAGFENPLRARLLSDLMAVLGQRAFTPLVTNADDPQQLRQALERLLSYRVAGLVMTSASPPLSVARQYLAHRIPVVMINREANLAGADVVVSDNAAGAAEAAQRLVHAGARRLAFVGPHTASFSARSRADAFAHALQRGNMSGATLASVIDTASDTHACGLDAAQQLFAAGHRPDGVFCSSDLLALGVIDAARAAFGLRVPDDVRVIGFDDIPAAAYHAYRLTTLRQDTQGLAHAAVDLLADRISAFDGASRTRVVPVTHVVRHSCAEGHHHHHH”, the “soluble on expression in E. coli” value was “soluble”.
With “MSLIYPEITGKSGEHLRLKTLESVWIQGKLRMWGRWSYIGDGKTGNMFNQLLTSKKLTKTAINEALRRMKKAGLDKPELEAFLRDMINGNQKSWLAHCTDSEALIIDRVIGEVLAGYPGLLNVLSQRYVGRGMTKRKMAELLNDAHPEWSLRTCERRIEHWLKVAEFILYKPMVMAFGIEKKVIAFEGHHHHHH” the “soluble on expression in E. coli” value was “soluble”.
For “MSLIYTLTLNPSVDYKIVLKEFQEESLNYALNNNFFAGGKGINVSTVLKNLGKPSTALGFLGGFTGDYIRFSLDSRGIKNDFIKIKYDTRLNIKMIANGRETEINANSPDISENEFELLKNKLKNLANNSTLVMSGSVPAALGEDAYNEIANSISNDVKLIIDTSGKPLRKILRLNPFLIKPNIYELEDLFNAKFDSTKELIKIGKNLVESGVQNIIISMGSDGAIFIGGKNVAFRAFVPKINFVSTIGAGDSVIAGFVYAFDNGSTLEDSFKFGVAAGTATALKGNLCEFQDVKKMLCQIRVEDIYTSEGHHHHHH”, the “soluble on expression in E. coli” value was “soluble”.
In the case of “MSLKAIVYKGPKMLEVVEIDKPIPKEGQVLVKVNRAGICGGDLGIYKGTHPRAKAPLVFGHEFSGVVEEDGKIFKKGTKVTVNPIYSCGDCVPCNSGDQHVCNTLRLVGIDRDGAMSEYVVVDENKLYELGDEMSDELGALIEPIAVAVHSVREPGYKPGDNAVVFGGGPIGLAIAFVLKKFGCTNLTIIEADDKRIAMGKDFGFDLRDAKGLDLEALKAEKTGGNGFDFVFDCAGVEPVAAQLIKASKVRGKIVIVAGYKTPTMFPVNEGMFKEVAFEFVRVYRDKDYEIAVELAKDEPMFEKLVTHVLPVEQAQEGFDLLLTPGTGAMKVLFKEGHHHHHH”, the “soluble on expression in E. coli” value is reported as “not soluble”.
In the case of “MSLKCIAIDLDGTLLNKESVISAENREAIKRAVDAGILVTICTGRATFDVKALLDDLDIPIIAANGGTIHDTGYRLISRTLMDQEAGKAIADYLLSKNIYFEVYTDDHLLSPFDGEAKLHAELDILKSANPNEQTDDLWQGAMTQFKQFGIKPIPHIESVFDGGENIYKLLCFSFDMDKLKQAKEELKHHKKLAQTSSGKHIIEILPASSGKGRALTKLADIYGIETQDIYAIGDSPNDLSMFEVAGHRIAMENAIDELKEKSTFVTKSNDENGVAYFIDQLLSGQYAEGHHHHHH”, the “soluble on expression in E. coli” value is reported as “soluble”.
With “MSLKDQDIFELIEPSTDINDIIMPENTKELLENILKQQDKKVLERLHSWGIKSNKNIEAKIIFYGPAGTGKTMSALAMAKSMKKSVLSFDCSKILSKWVGESEQNVRKIFDTYKNIVQTCKQSPILLLNEADQFLSTRVDGSSGSDKMHNQMQNIFLEQIERFSGVIIATTNFLESLDSAFSRRFDYKIEFKKPDFKDRLKIWEKFLPKKALFEKDFDINILSNYELSGAQILMVVKNTALKVAVSKDGVFKIQDFIESIQKELNSSFDKSKIVGFEGHHHHHH” the “soluble on expression in E. coli” value was “soluble”.
In the case of “MSLKDRYILAFETSCDETSVAVLKNDDELLSNVIASQIESHKRFGGVVPEVASRHHVEVITACIEEALAEAGITEEDVTAVAVTYGPGLVGALLVGLSAAKAFAWAHGLPLIPVNHMAGHLMAAQSVEPLEFPLLALLVSGGHTELVYVSEAGDYKIVGETRDDAVGEAYDKVGRVMGLTYPAGREIDELAHQGQDIYDFPRAMIKEDNLEFSFSGLKSAFINLHHNAEQKGESLSTEDLCASFQAAVMDILMAKTKKALEKYPVKTLVVAGGVAANKGLRERLATEITDVNVIIPPLRLCGDNAGMIAYASVSEWNKENFANLDLNAKPSLAFDTMEEGHHHHHH”, the “soluble on expression in E. coli” value is reported as “soluble”.
In the case of “MSLKDTFSVLLIEDSNADYRLIQEYLGESQSPSFQISRSTDFSAGLSFITNESPDLVMLDLSLPDRTGLEALSEIKRKFPQIPVIICSGAEDKDITVNALQIGAQDYVYKGKFDSYSLSRSLVFAYERNRLALELEKKSVFEQESEERYRLFFQYNPHPAFLFEHDSLEILEINRAVLEKYGYEEKDLIGKSILQIFELSDFDKVKQEIIFFQFGANQASSFVHKKKNGEKLIADTTVYKFRYQNQILDLAVVTDITEMVRNRESILATLAEKDALIQEIHHRVKNNMQIMISLLNLQADNAMSRNLTAKELYNLLKDTESRVFSMSLVHNELYKSNDLSHVDFHSYLNMLLENLWNLYGVGLKIKHLVEAQGLVLSMNIAISLGLIVCELVTNAIKHAFPDGYEGLLKIFARCELGSTIVTIEDNGKGIPKEMISKNHETLGLQLVNILTKQIQGKLHLEVLDPGTKFEIRFPEQKGTVQRKEGHHHHHH”, the “soluble on expression in E. coli” value is reported as “not soluble”.
In the case of “MSLKFIGECRDRWPIAVLCRTLEVTRAAYYRFAGRGPTVTEIKQTQIIQAVKEIRLEKHHDAYGSPRMQRAIVKRGVVCCRNTVAKCMRHAGIQANRRTKFRISTTDSNHDQPIASNLLGQNFTTEAINRVWLTDITYIPTQEGSTYLCAFVDLHSRKIVSWKTSRNMDSELVVGAFDQALTFRKPNAGLIVHSDRGSQFASDHFRRRLAASGLVQSMSRRGNCYDNAPMESFFKSYKTEEAQQIYDTHEHATRGVSDYIERFYNPHRLHSSLGYLSPIDFEQAIKEPSLVSESEGHHHHHH”, the “soluble on expression in E. coli” value is reported as “not soluble”.
In the case of “MSLKGAQILVVEDELIVGMMIKLKLAKMGYCVSCMASTGADAVAMVEKVRPELVLMDIRLKGSLDGVEAAMMIRKISNIPIVFITADSSLETRERAELACPQGFLLKPFMDEELGSLVRSVFSNSMGGASAVNANEGHHHHHH”, the “soluble on expression in E. coli” value is reported as “not soluble”.
